Where no end group is shown, it is not given here.
Assays:
ERH-2 [1] = assay type: binding, C. elegans
ERH-1 [2] = target: T1, ERH-1 (Caenorhabditis elegans, UniProt Q22640); experiment: Isothermal titration calorimetry, binding to ERH-1; parameters: species or system C. elegans
T1 sequence (Q22640 1-103): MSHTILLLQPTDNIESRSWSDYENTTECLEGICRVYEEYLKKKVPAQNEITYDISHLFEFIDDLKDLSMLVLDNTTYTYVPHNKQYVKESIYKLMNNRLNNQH

ERH-2:PID-3^pep 1:2 = target: T2, ERH-2:PID-3^pep 1:2 (Caenorhabditis elegans, UniProt O76616+Q20057); experiment: Isothermal titration calorimetry, binding to ERH-2:PID-3^pep 1:2; parameters: species or system C. elegans
T2 sequence (Q20057 1-113): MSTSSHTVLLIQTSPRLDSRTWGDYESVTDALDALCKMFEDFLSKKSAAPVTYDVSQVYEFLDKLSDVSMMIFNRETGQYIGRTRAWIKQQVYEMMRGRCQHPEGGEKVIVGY
T2 sequence (O76616 171-203 partner limits assumed): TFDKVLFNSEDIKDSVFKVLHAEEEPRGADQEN

ERH-2 [3] = target: T3, ERH-2 (Caenorhabditis elegans, UniProt Q20057); experiment: NMR-monitored titration of 15N-labeled ERH-2; assay type: binding, C. elegans; details: 1H-15N HSQC titration, 25°C, NMR buffer pH 7.50, ERH-2 ~200 μM
T3 sequence (Q20057 1-113): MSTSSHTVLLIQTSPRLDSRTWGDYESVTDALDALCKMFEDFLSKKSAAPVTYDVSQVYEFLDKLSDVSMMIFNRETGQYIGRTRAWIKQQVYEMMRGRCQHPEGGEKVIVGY

ERH-2 [4] = target: T3, ERH-2; experiment: Isothermal titration calorimetry, binding to ERH-2; parameters: species or system C. elegans
ERH-2 [5] = experiment: Streptavidin pull-down, TOST-1/PID-1 mVenus-Strep bait with ERH-2; assay type: binding, C. elegans; details: TOST-1 or PID-1 mVenus-Strep bait 10-20 μM, prey 1.2-fold molar excess, 4°C
ERH-1 [6] = target: T1, ERH-1; experiment: Streptavidin pull-down, TOST-1/PID-1 mVenus-Strep bait with ERH-1; assay type: binding, C. elegans; details: TOST-1 or PID-1 mVenus-Strep bait 10-20 μM, prey 1.2-fold molar excess, 4°C
full-length ERH-2^FL = target: T4, full-length ERH-2^FL (C. elegans, UniProt Q20057 1-113); experiment: ITC
T4 sequence (looked up): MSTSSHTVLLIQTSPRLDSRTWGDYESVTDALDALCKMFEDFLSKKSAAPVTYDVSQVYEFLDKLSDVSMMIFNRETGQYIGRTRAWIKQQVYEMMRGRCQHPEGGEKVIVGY

PID-3/TOFU-6 interaction = assay type: binding, C. elegans
[7] = target: Cy5-labeled 16-mer oligo(U) RNA; experiment: Fluorescence anisotropy RNA binding, Cy5-U16; details: 100 nM Cy5-U16 RNA, 10 mM Tris/HCl pH 7.5, 50 mM KCl, 0.5 mM EDTA, ≥2 h at 15°C, single binding site model, n = 3 technical replicates
SEC-MALS = target: the molecule itself; experiment: SEC-MALS
[8] = SEC-MALS, molecular mass and oligomeric state; assay type: physicochemical, C. elegans; details: for average molecular mass: 2-5 mg/mL, 20 mM Tris/HCl pH 7.5, 150 mM NaCl, 2 mM DTT
TOST-1-mVenus-Strep = target: T5, TOST-1-mVenus-Strep (C. elegans, UniProt Q18490 1-142); experiment: pull-down
T5 sequence (looked up): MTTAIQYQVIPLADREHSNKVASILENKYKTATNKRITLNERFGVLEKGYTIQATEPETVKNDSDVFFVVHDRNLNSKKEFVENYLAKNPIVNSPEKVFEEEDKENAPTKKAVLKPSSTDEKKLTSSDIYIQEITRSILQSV

TOST-1 = experiment: Streptavidin pull-down of ERH-2 variants with TOST-1-mVenus-Strep; assay type: binding, C. elegans; details: ERH-2 variants as prey, TOST-1-mVenus-Strep as bait

## GST-PID-3^pep: GST-tagged PID-3 peptide (residues 171–203) (TFDKVLFNSEDIKDSVFKVLHAEEEPRGADQEN; also: N-terminal His6 and GST tags, order not given here)
ERH-2 [1]
  binding to ERH-2 in GST pull-down: ERH-2 could indeed bind to GST-PID-3^pep

## KYKTATNKRITLNERFGVLEKGYTIQ [TOST-1^pep]
ERH-1 [2]
  Kd: 10 ± 2 µM
ERH-2:PID-3^pep 1:2
  Kd: 4 ± 2 µM
ERH-2 [3]
  dissociation constant range from NMR exchange regime: micromolar range

## NYNTNLHRKVTLSDRFELAALGYEMKAK [PID-1^pep]
ERH-2 [4]
  Kd: 24 ± 3 µM
ERH-1 [2]
  Kd: 73 ± 11 µM
ERH-2 [3]
  dissociation constant range from NMR exchange regime: micromolar range

## PID-1: full-length PID-1, C-terminally tagged with monomeric Venus StrepII tag (NYNTNLHRKVTLSDRFELAALGYEMKAK)
ERH-2 [5]
  binding to ERH-2 in streptavidin pull-down: Both PID-1 and TOST-1 bound ERH-2
ERH-1 [6]
  binding to ERH-1 in streptavidin pull-down: interacted with ERH-1

## KYKTATNKRITLNERFGVLEKGYTIQ (peptide, UniProt Q18490 28-53, looked up) [TOST-1^pep]
full-length ERH-2^FL
  Kd: 13 µM

B1: TOFU-6^RRM: TOFU-6 RRM domain, residues 1–99 (protein)
chain: MASSSTAYYLKDAGFHIRNIPKAWNDWNLFHVFQNFGKVSYCRVVGQSNDGQVQLGFVNMMSVADADEVRKNLNDGNLIGENFTLKVTDHKNVGGSLLP
modifications: left off: His10, N-terminal, state not stated | MBP, N-terminal, state not stated
PID-3/TOFU-6 interaction
  PID-3/TOFU-6 interaction in pull-down: the RRM domains of PID-3 and TOFU-6 mediate the interaction between the two proteins
[7]
  Kd: ~60 µM

## TFDKVLFNSEDIKDSVFKVLHAEEEPRGADQEN (peptide, UniProt O76616 171-203, looked up) [PID-3^pep]
full-length ERH-2^FL
  stoichiometry N: 0.97

B2: I182E and S185E: GST-tagged PID-3 mutant(s), Ile182 and Ser185 to glutamate (conjugate, UniProt O76616 1-307, looked up, variant I182E S185E)
Protein pid-3: MVAHQKADFKSKWAMVVTVNNLNDKKRADLREFSEWFIETLRLEGAFIGHYFNYEAAPVTIVETLPGNFDSCTNAYQKIHKEHPQVVLVVHILPQSQSNEYEWMKVLASRYGFVRQGLLYDNCANRFQNVETDQNSVFRNMCQWIYRSGTAIVRNEGNACGILHGKDPKPTFDKVLFNSEDEKDEVFKVLHAEEEPRGADQENMLKISGYPGMLNTFGIAQLLTPYRVNGITITGAQSAVVALENKFQVYQAVQDFNGKKLDRNHKLQVSSLVVSSPAVPLEWPSLKKSKKLVEQVGKPIRLSKVSS
modifications: GST tag
ERH-2 [1]
  binding to ERH-2 in GST pull-down: completely abrogated binding of PID-3^pep to ERH-2

B3: I182A and V186A: GST-tagged PID-3 mutant(s), Ile182 and Val186 to alanine (conjugate, UniProt O76616 1-307, looked up, variant I182A V186A)
Protein pid-3: MVAHQKADFKSKWAMVVTVNNLNDKKRADLREFSEWFIETLRLEGAFIGHYFNYEAAPVTIVETLPGNFDSCTNAYQKIHKEHPQVVLVVHILPQSQSNEYEWMKVLASRYGFVRQGLLYDNCANRFQNVETDQNSVFRNMCQWIYRSGTAIVRNEGNACGILHGKDPKPTFDKVLFNSEDAKDSAFKVLHAEEEPRGADQENMLKISGYPGMLNTFGIAQLLTPYRVNGITITGAQSAVVALENKFQVYQAVQDFNGKKLDRNHKLQVSSLVVSSPAVPLEWPSLKKSKKLVEQVGKPIRLSKVSS
modifications: GST tag
ERH-2 [1]
  binding to ERH-2 in GST pull-down: sufficient to abolish binding

B4: PID-3^RRM F247E/Q251R (purified) (domain or fragment, C. elegans, UniProt O76616 196-274, looked up)
chain: PRGADQENMLKISGYPGMLNTFGIAQLLTPYRVNGITITGAQSAVVALENKEQVYRAVQDFNGKKLDRNHKLQVSSLVV
SEC-MALS
  stoichiometry N: 2

B5: PID-3^RRM F247E/Q251R (protein)
chain: PRGADQENMLKISGYPGMLNTFGIAQLLTPYRVNGITITGAQSAVVALENKEQVYRAVQDFNGKKLDRNHKLQVSSLVV
modifications: left off: His6, N-terminal, kept | GST, N-terminal, kept
[8]
  oligomeric state: homodimeric

B6: PID-3^RRM A220E (protein)
chain: PRGADQENMLKISGYPGMLNTFGIEQLLTPYRVNGITITGAQSAVVALENKFQVYQAVQDFNGKKLDRNHKLQVSSLVV
modifications: left off: His6, N-terminal, kept | GST, N-terminal, kept
[8]
  oligomeric state: monomeric

B7: ERH-2 T13E (purified) (natural protein, C. elegans, UniProt Q20057 1-113, looked up)
chain: MSTSSHTVLLIQESPRLDSRTWGDYESVTDALDALCKMFEDFLSKKSAAPVTYDVSQVYEFLDKLSDVSMMIFNRETGQYIGRTRAWIKQQVYEMMRGRCQHPEGGEKVIVGY
TOST-1-mVenus-Strep
  binding result: binds

B8: PID-3/ERH-2: PID-3/ERH-2 subcomplex (protein, UniProt O76616 1-307; Q20057 1-113, looked up)
Protein pid-3: MVAHQKADFKSKWAMVVTVNNLNDKKRADLREFSEWFIETLRLEGAFIGHYFNYEAAPVTIVETLPGNFDSCTNAYQKIHKEHPQVVLVVHILPQSQSNEYEWMKVLASRYGFVRQGLLYDNCANRFQNVETDQNSVFRNMCQWIYRSGTAIVRNEGNACGILHGKDPKPTFDKVLFNSEDIKDSVFKVLHAEEEPRGADQENMLKISGYPGMLNTFGIAQLLTPYRVNGITITGAQSAVVALENKFQVYQAVQDFNGKKLDRNHKLQVSSLVVSSPAVPLEWPSLKKSKKLVEQVGKPIRLSKVSS
Enhancer of rudimentary …: MSTSSHTVLLIQTSPRLDSRTWGDYESVTDALDALCKMFEDFLSKKSAAPVTYDVSQVYEFLDKLSDVSMMIFNRETGQYIGRTRAWIKQQVYEMMRGRCQHPEGGEKVIVGY
[8]
  average molecular mass: 92 kDa

B9: I81A/R83A (protein)
chain: MSTSSHTVLLIQTSPRLDSRTWGDYESVTDALDALCKMFEDFLSKKSAAPVTYDVSQVYEFLDKLSDVSMMIFNRETGQYAGATRAWIKQQVYEMMRGRCQHPEGGEKVIVGY
modifications: left off: His6, N-terminal, state not stated | Trx, N-terminal, state not stated
TOST-1
  binding to TOST-1 in streptavidin pull-down: weaker interaction with TOST-1

B10: ERH-2: full-length C. elegans ERH-2 (protein, UniProt Q20057 1-113, looked up)
chain: MSTSSHTVLLIQTSPRLDSRTWGDYESVTDALDALCKMFEDFLSKKSAAPVTYDVSQVYEFLDKLSDVSMMIFNRETGQYIGRTRAWIKQQVYEMMRGRCQHPEGGEKVIVGY
modifications: full-length
[8]
  oligomeric state: homodimers
  average molecular mass: 27 kDa

B11: W87A (protein)
chain: MSTSSHTVLLIQTSPRLDSRTWGDYESVTDALDALCKMFEDFLSKKSAAPVTYDVSQVYEFLDKLSDVSMMIFNRETGQYIGRTRAAIKQQVYEMMRGRCQHPEGGEKVIVGY
modifications: left off: His6, N-terminal, state not stated | Trx, N-terminal, state not stated
TOST-1
  binding to TOST-1 in streptavidin pull-down: weaker interaction with TOST-1

B12: ERH-1 (natural protein, C. elegans, UniProt Q22640 1-103, looked up)
chain: MSHTILLLQPTDNIESRSWSDYENTTECLEGICRVYEEYLKKKVPAQNEITYDISHLFEFIDDLKDLSMLVLDNTTYTYVPHNKQYVKESIYKLMNNRLNNQH
TOST-1-mVenus-Strep
  binding result: binds

Source: publication PMC8415317 (Genes & Development, 2021)
